Measured values reported in publication PMC3578862, “Single Residue Mutation in Active Site of Serine Acetyltransferase Isoform 3 from Entamoeba histolytica Assists in Partial Regaining of Feedback Inhibition by Cysteine” (PLoS ONE, 2013).

How the values were obtained:
N[C@@H](CO)C(=O)O = experiment: purified protein; format: biochemical, Entamoeba histolytica; settings: acetyl coenzyme A active site
[1] = biological target: T1, Serine acetyltransferase isoform 3 (EhSAT3) (Entamoeba histolytica, UniProt Q401L4, S208H); experiment: SAT activity assay at […] nm, […] serine; […] inhibition at […]; format: biochemical
T1 construct: gene SAT 3

[2] = biological target: T2, Serine acetyltransferase isoform 1 (EhSAT1) (Entamoeba histolytica, UniProt Q9U8X2, H208S); experiment: SAT activity assay at […] nm, […] serine; format: biochemical
T2 construct: gene EhSAT

Molecule	Km (N[C@@H](CO)C(=O)O) [µM]	IC50 [1] [µM]	IC50 [2] [µM]
Serine acetyltransferase isoform 3 (EhSAT3) (Entamoeba histolytica; S208H)	185.5		
Serine acetyltransferase isoform 1 (EhSAT1) (Entamoeba histolytica; H208S)	68.4		
N[C@@H](CS)C(=O)O [L-cysteine]		3500	170
